Results from patent US8900593B2 (Indiana University Research and Technology Corporation, priority 2007, dated 2014).
Where two headings read alike, the source gives them in different places. Each block holds one substance with its values, some of them ahead of it. Where no end group is shown, it is not given here. [ ]: non-standard residue; d: D form. PEG = not defined here; Aib = CC(C)(N)C(=O)O

How the values were obtained:
GLP-1 receptor = target: T1, GLP-1 receptor (Homo sapiens, UniProt P43220); test: Functional assay-cAMP synthesis, luciferase reporter in HEK293 cells co-transfected with GLP-1 receptor; type: cell-based
T1 construct: expressed in transfected cells; host or cells: HEK293
T1 sequence (P43220 24-463, species assumed): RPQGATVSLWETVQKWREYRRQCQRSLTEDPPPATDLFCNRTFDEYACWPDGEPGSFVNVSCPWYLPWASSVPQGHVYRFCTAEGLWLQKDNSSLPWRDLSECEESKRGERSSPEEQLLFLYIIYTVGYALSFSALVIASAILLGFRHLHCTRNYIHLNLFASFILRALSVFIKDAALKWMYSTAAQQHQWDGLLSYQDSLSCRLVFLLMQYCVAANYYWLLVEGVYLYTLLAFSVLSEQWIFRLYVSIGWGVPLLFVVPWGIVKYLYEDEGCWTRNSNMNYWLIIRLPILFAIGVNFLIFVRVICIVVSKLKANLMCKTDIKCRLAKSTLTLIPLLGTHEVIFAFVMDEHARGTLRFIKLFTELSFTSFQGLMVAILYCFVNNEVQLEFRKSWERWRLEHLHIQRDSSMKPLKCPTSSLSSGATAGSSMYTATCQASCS

glucagon receptor = target: T2, glucagon receptor (Homo sapiens, UniProt P47871); test: Functional assay-cAMP synthesis, luciferase reporter in HEK293 cells co-transfected with glucagon receptor; type: cell-based; details: for Parent w/PEG % Potency Relative to Native GR / Parent w/o PEG % Potency Relative to Native GR: Table 12; for Parent w/PEG % Potency Relative to Native GR: pegylated peptide; for Parent w/o PEG % Potency Relative to Native GR: peptide without PEG
T2 construct: expressed in transfected cells; host or cells: HEK293
T2 sequence (P47871 26-477): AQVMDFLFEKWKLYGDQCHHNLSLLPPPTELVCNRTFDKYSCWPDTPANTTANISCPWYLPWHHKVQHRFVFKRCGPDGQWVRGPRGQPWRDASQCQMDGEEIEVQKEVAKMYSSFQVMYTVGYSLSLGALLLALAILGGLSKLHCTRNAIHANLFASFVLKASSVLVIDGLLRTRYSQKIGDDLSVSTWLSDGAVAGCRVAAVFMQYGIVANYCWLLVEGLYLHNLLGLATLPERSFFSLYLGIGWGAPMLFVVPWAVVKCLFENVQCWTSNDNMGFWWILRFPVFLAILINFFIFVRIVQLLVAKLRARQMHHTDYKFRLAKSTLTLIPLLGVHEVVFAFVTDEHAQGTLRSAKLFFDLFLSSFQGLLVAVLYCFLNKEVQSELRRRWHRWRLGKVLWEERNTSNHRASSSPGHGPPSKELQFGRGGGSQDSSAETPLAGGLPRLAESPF

[1] = Glucagon Receptor EC50(nM), Table 10, GLP-1 17-26 glucagon analogs

- EC50 (glucagon receptor; read-out: cAMP Induction Glucagon Receptor EC50, Table 3, pegylated glucagon analogs): 0.1 ± 0.05 nM
Substance: Glucagon Cys^24 maleimido,PEG-3.4K-dimer [Glucagon C24 Dimer]

- selectivity for the GLP-1 receptor (GLP-1 receptor; versus glucagon receptor): approximately a tenfold selectivity
Substance: SEQ ID NO: 22: glucagon analog substituting the native glutamine at position 3 with glutamic acid

- EC50 (GLP-1 receptor): 0.007 nM
- EC50 (glucagon receptor; [1]): 0.23 nM
Substance: HSQGTFTSDYSKYLDEQAAKEFIEWLVKG-NH2 [E16 GLP(17-29)-NH2 E24, K28]

- EC50 (GLP-1 receptor): 0.01 nM
- EC50 (glucagon receptor; [1]): 0.46 nM
Substance: HSQGTFTSDYSKYLDEQAAKEFIAWLVKG-NH2 [E16 GLP(17-29)-NH2, HSQGTFTSDYSKYLDEQAAKEFIAW LVKGa]

The remaining lines, values behind:

Substance: HX2QGT FTSDY SKYLD ERAAK DFVC*W LMNTa (H[Aib]QGTFTSDYSKYLDERAAKDFVC(PEG)WLMNT-NH2; reading uncertain) [E16, K20AIB2, A18 Cys24 (SEQ ID NO: 492), X2=AIB; C* is Cys attached to PEG in the tested form]
- Parent w/PEG % Potency Relative to Native GLP-1R (GLP-1 receptor; Table 12, pegylated peptide): 73.5%
- Parent w/PEG % Potency Relative to Native GR (glucagon receptor): 1.1%

Substance: Oxyntomodulin C24 PEG 20K: oxyntomodulin Cys24 pegylated with 20K PEG
- EC50 (glucagon receptor; read-out: cAMP Induction Glucagon Receptor EC50, Table 2, analogs with C-terminus extension): 0.97 ± 0.04 nM

Substance: HSEGTFTSDYSKYLDERRAQDFVQW LMNTa (HSEGTFTSDYSKYLDERRAQDFVQWLMNT-NH2) [E3, E16 Gluc-NH2]
- Percent Potency Relative to Native Ligand GLP-1Rec (GLP-1 receptor; Table 4, relative to native GLP-1): 28.8%
- Percent Potency Relative to Native Ligand GRec (glucagon receptor; Table 4, relative to native glucagon): 1.6%

Substance: HX2QGT FTSDY SKYLD EQAAK EFIC*W LMNGG PSSGA PPPSa (H[Aib]QGTFTSDYSKYLDEQAAKEFICWLMNGGPSSGAPPPS-NH2; also: optional PEG on Cys24) [X2=AIB; C* is Cys or Cys attached to PEG]
- Parent w/PEG % Potency Relative to Native GLP-1R (GLP-1 receptor; Table 12, pegylated peptide): 95.4%
- Parent w/o PEG % Potency Relative to Native GLP-1R (GLP-1 receptor; Table 12, peptide without PEG): 457.8%
- Parent w/PEG % Potency Relative to Native GR (glucagon receptor): 0.2%
- Parent w/o PEG % Potency Relative to Native GR (glucagon receptor): 2.5%

Substance: HX2QGT FTSDYSKYLDEQAAKEFIAWLMNGGPSSGAPPPSC*a (H[Aib]QGTFTSDYSKYLDEQAAKEFIAWLMNGGPSSGAPPPSC-NH2; lactam (positions not given here); also: optional PEG on Cys40) [X2=AIB; C* is Cys or Cys attached to PEG]
- Parent w/PEG % Potency Relative to Native GLP-1R (GLP-1 receptor): 63.6%
- Parent w/o PEG % Potency Relative to Native GLP-1R (GLP-1 receptor): 169.6%
- Parent w/PEG % Potency Relative to Native GR (glucagon receptor): 3.2%
- Parent w/o PEG % Potency Relative to Native GR (glucagon receptor): 14.2%

Substance: HSQGT FTSDYSKYLD EQAAK EFIC*W LMNTa (HSQGTFTSDYSKYLDEQAAKEFIC(PEG)WLMNT-NH2; reading uncertain) [Chimera Cys24 (SEQ ID NO: 518), C* is Cys attached to PEG in the tested form]
- Parent w/PEG % Potency Relative to Native GLP-1R (GLP-1 receptor; Table 12, pegylated peptide): 29.3%
- Parent w/PEG % Potency Relative to Native GR (glucagon receptor): 19.8%
